Test results from article PMC10157364.

Assays:
[1] = target: ON103 and ON203 versus C0008 (SPR, Fig. 1D); experiment: SPR; Biacore 3000; antibodies amine-coupled to CM5 chips (about 2,500; 1,500; 1,000 RU); MIF at 42-666 nmol/L in HBS-EP with 0.2% Proclin300 (3 hours, room temperature), 30 uL/minute; Langmuir 1:1 model with mass transfer; mean of flow cells 2-4
[2] = target: all anti-oxMIF antibodies (quantitative oxMIF ELISA, Fig. 1C); experiment: ELISA; quantitative oxMIF ELISA: 15 nmol/L C0008, ON103 or ON203 as capture antibodies; human or mouse MIF in buffers with 0.2% Proclin300 as standard curves; EC50

Kd [1]: 3.5 to 6.1 nM
EC50 [2]: 0.6 to 0.7 nM
B1: human MIF treated with 0.2% Proclin300 (oxMIF surrogate) (natural protein)
chain: MPMFIVNTNVPRASVPDGFLSELTQQLAQATGKPPQYIAVHVVPDQLMAFGGSSEPCALCSLHSIGKIGGAQNRSYSKLLCGLLAERLRISPDRVYINYYDMNAANVGWNNSTFA
modifications: treated with 0.2% Proclin300 to transform MIF into an oxMIF surrogate
